{"source": "the nanobody polyreactivity screen of Harvey et al. (2022)"}
{"assay": "yeast display, Sf9 membrane polyspecificity reagent, FACS + sequencing; frameworks hold sequencing errors", "outline": "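Nanobodies from a synthetic yeast display library (Saccharomyces cerevisiae BJ5465), induced 36–48 hours with galactose, were stained 1 hour at 4 °C with 10% biotinylated, detergent-solubilized Sf9 membrane reagent, enriched on streptavidin microbeads, then FACS-sorted. Anti-HA (expression) and streptavidin (reagent binding) fluorescence set low and high (top ~1%) gates. Polyreactivity labels come from the gate of origin. Genes were colony-PCR amplified, MiSeq 2 × 250 sequenced and filtered by CDR length.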"}
{"sequence": "QVQHVESVGGLVQAGGSLRVSCAASGTIFTFYTMGRYRPAPGKERELVAAISQTGGRTYYGDSVKGRFTISRDNAKNTVYLQMNSLKPEDTAVYYCAASVGRYAGNYWGQGTQVTVSS", "polyreactivity (PSR sort gate)": "high polyreactivity"}
{"sequence": "QVQHVETGGGLVQAGGSLRLSCAASGSTFVLYAKGWYRQAPGKERELVAAITWSGDDTYYADSVKGRFTISRDNAKNTVYLQMISLKPEDTAVYYCAAAYAYWGQGTQVTVSS", "polyreactivity (PSR sort gate)": "low polyreactivity"}
{"sequence": "QVQHVETRGGLVQAGGSLRLSCAASGFIFIRYAMGWDRQAPGKERELVAGITSSGGSTYYADSVKGRFTISRDNAKNSVYLQMNSLKPEDTEVYFCNADSWLYRFYGYDYWGQGTQVTVSS", "polyreactivity (PSR sort gate)": "low polyreactivity"}
{"sequence": "QVQIEESGGCLVQAGGSLRLSCAASGNTFFKYNMGWSRQAPRKERELVAAITWSGGSTSYADSVKGRFTISRDNAKNTVYLQMNSLKPEDTAVYYCAAAWSHSRWDTHDYWGQGTQVTVSS", "polyreactivity (PSR sort gate)": "low polyreactivity"}
{"sequence": "QVQIEESGGCLVQAGGSLRLTCAASGRIISWNAMGWSRQAPGKERELVAGITWNGGRTYYADSVKGRFTISRDNVKNTVYLQMNSLKPEDTAVFSCNAERFDLTYNYWGQGTQVTVSS", "polyreactivity (PSR sort gate)": "high polyreactivity"}
{"sequence": "QVQIEESGGGLVQEGGSLRISCAASGRIFVYYAMGWNRQAPGKDWELVAAISSGGNTYADSVKGRFTISRDNAKITVYLQMYSLKPDDTAVYYCNASPVSSHVHPKRGYEYWGQGTQVNVSS", "polyreactivity (PSR sort gate)": "low polyreactivity"}
{"sequence": "QVQIEESGGVLVQAGGSLRLSCAASGSIFQPYALGWYRQAPGKERELVAAISSSGGSTTYADSVKGRFTISRDIAKNTVYLQMNSLKPEDTAVYYCAADSADDMGYWGQGTQVTVSS", "polyreactivity (PSR sort gate)": "low polyreactivity"}
{"sequence": "QVQIEESRVGLVQAGGSLRLSCAASGSIIYENMGWYRPAPGKERELVASISWSGTSTYADSVKGRFTMTRDNAKTTVYLLMNSLKPEDTAVYSCAAYPYPFYQSKYLGIGYGFWGQGTQVTVSS", "polyreactivity (PSR sort gate)": "high polyreactivity"}
{"sequence": "QVQILESGGWLVQAGGSLRLSCASSGRTFDVYAMGWYRQAPGKERELVAAISWGAGNTYYADSVKGRFTISRDNAKNTVYLQMNSLKPEDTAVYYCAAEDDWSEYDYWGQGTQVTVSS", "polyreactivity (PSR sort gate)": "high polyreactivity"}
{"sequence": "QVQIVDSGRGLVQAGGSLRLSCAASGRTFIRYTMGWSRQATGKERELFAAITSGGITNYADSVKGRFTISRDNAKNPVYLQMNSLKPQDSALYYCAARHRWVTGSYGKYDYLGQGTQVTVSS", "polyreactivity (PSR sort gate)": "low polyreactivity"}
{"sequence": "QVQIVESGAGLVQAGGSLRLSCAASGSIYAPNAMGWYRQAPGKERELVAAISRSGGRTYYADSVKGRFTISRDNAKNTVYLQMNSLKPEDTAVYYCAADYKHQRTYGSWGQGTQVSVSS", "polyreactivity (PSR sort gate)": "high polyreactivity"}
{"sequence": "QVQIVESGGAFVQAGGSLRLRCEASGSTFVNKDMGWSRPAPGKEREFVAAIRNTGGRTYYADSVKGRFTISRDNAKNSVYLQMNSLKPEDTAVYYCAAVSRVRTLWRMDYWGQGTQVTVSS", "polyreactivity (PSR sort gate)": "high polyreactivity"}
{"sequence": "QVQIVESGGALVQAGGGHRLSCAASGRTFTYNAMGWYRQAPGKERELVAAITSGGSTNYADSVKGRFTISRDNAKNTVYLQMNSLKPEDTAVYYCAARRVYYSYRRYYYWGQGTQVTVSS", "polyreactivity (PSR sort gate)": "low polyreactivity"}
{"sequence": "QVQIVESGGALVQAGGSLRLSCAASGITLRPYAMGWYRQAPGKERELVAAITSSGGSTYYADSVKGRFTISRDIAKNTVYLLMNSLIPEDTAVYYCAALRVYAGDYWGQGTQVTVSS", "polyreactivity (PSR sort gate)": "low polyreactivity"}
{"sequence": "QVQIVESGGALVQAGGSLRLSCAASGSTHGNAMGWYRQAPGKERELVAAISLNTGSTYYADSVKGRFTISRDNAKNTVYLQMNSLKPEDTAVYYCAAGGTARDDSWGQGTQVTVSS", "polyreactivity (PSR sort gate)": "low polyreactivity"}
{"sequence": "QVQIVESGGFLVQAGGSLRLSCDASGRNIPGYGMGWSRHAPGKERELVAVITSNGGITYYADSVKGRFTISRDYAKNTVYLQMNSLKPEDTAVYYCDAYVIYYEFDSWGQGTQVTVSS", "polyreactivity (PSR sort gate)": "low polyreactivity"}
{"sequence": "QVQIVESGGGFVQAGGSLRLSCAASGRIYGNTMGWYRQAHGKERELVAAITRSGVSTYYADSVKGRFTISRDNAKNTVYLQMNSLKPDDTAVYYCAAREWSGPKINPPYRYNSWGQGTQETVSS", "polyreactivity (PSR sort gate)": "high polyreactivity"}
{"sequence": "QVQIVESGGGLFQAGGSLRISCAASGRIFQYYTMGWYRQAPGKERELVATISRRGGTTYYADSVKGRFTISRDNAKNTVYLQMNSLKPEDTAVYYCNADSRTYRYYWSYGYWGQGTQVTVSS", "polyreactivity (PSR sort gate)": "high polyreactivity"}
{"sequence": "QVQIVESGGGLFQAGGSLRISCAPSGRTLRYNTMGWYRQAPGKERELVAAISIRGGSTYYADSVKGRFTISRDNAKNTVYLQMNSLKPEDTAVSYCNARFTYRWGMGYWGQGTQVTVSS", "polyreactivity (PSR sort gate)": "high polyreactivity"}
{"sequence": "QVQIVESGGGLFQAGGSLRLICAASGRIFGNYSMGSSRQEPGKEREFVAAIDWSGGTTYYADSVKGPFTISRDNAKNTVYLQMNSLKPEDTEVYYCAAKYVYSVGNYRYDYWGQGTEVTVSS", "polyreactivity (PSR sort gate)": "low polyreactivity"}
{"sequence": "QVQIVESGGGLVQAAGSLRLSCAAYGRIFGVYAMGWYRQAPGKERELVSNITSGGSTSYADSVKGRFTISRDNAKNTVYLQMNSLKPEDTAVYYCNAPYSFFWQQMNYWGQGTQVTVSS", "polyreactivity (PSR sort gate)": "low polyreactivity"}
{"sequence": "QVQIVESGGGLVQAGCSLRLSCAASGHTFTIKAMGWYRQAPGKERELVAAITFSGGRTYYADSVKGRFTISRDNAKNTVYLQMNSLKPEDTAVYYFAADNPGGSIYDYWGQGTQVNVSS", "polyreactivity (PSR sort gate)": "low polyreactivity"}
{"sequence": "QVQIVESGGGLVQAGGILRLSCAASVITFGYYAMGWYSQAPGKEWELVAAISRSGGNTRYADSVKGRFTISRDNAKNTVYLQMNSLTPEDTAVYYCAAYSRYTRTFPLFSGSRYGYWGHGTQVTVSS", "polyreactivity (PSR sort gate)": "high polyreactivity"}
{"sequence": "QVQIVESGGGLVQAGGRLRLSCAASGSIFSIYDMGWYRQAPGKERELVAAITWGGASTYYADSVKGRFTISRDNAKNTVYLQMNSLKPEDTAVYYCAADSLTWNGTYYYWGQGTQVTVSS", "polyreactivity (PSR sort gate)": "high polyreactivity"}
{"sequence": "QVQIVESGGGLVQAGGRLSLTCAASGRIFTAYAMRWYRPAPGKEREFVAAISARGGSTNYADSVKGRFTISRDNAMNTVYLQMNSLKPEDTAVYYCHARFVQWYWIGNVIHIDNDYWGQGSQVTVSS", "polyreactivity (PSR sort gate)": "low polyreactivity"}
{"sequence": "QVQIVESGGGLVQAGGSHRLSCAASVFTFGGNVMGWYRQAPGKEREFVAAISSSGGSTYYADSVKGRFTISRDNEKNTVFLQINSLKPDDTAVYYCAKYAVVYQYRYYHWGQGTQVTVSS", "polyreactivity (PSR sort gate)": "high polyreactivity"}
{"sequence": "QVQIVESGGGLVQAGGSLPLSCAASGFIYNYNAMGWYRQAPRKERELVAAISTSGSSTYYADSVKGRFTISRDTPKNTVYLQMNSLKPEVTAVYYCARYRVARGEGGWLYDYWGQGTQVTVSS", "polyreactivity (PSR sort gate)": "high polyreactivity"}
{"sequence": "QVQIVESGGGLVQAGGSLRISCAASGRIFRTYAMGWYRQAPGKERELVAAISSRGGSTSYADSVKGRFTISRDNEKNTVYLQLNSLKPEDTAVYYCARVGRNPVKYDYWGQGTQVTVSS", "polyreactivity (PSR sort gate)": "high polyreactivity"}
{"sequence": "QVQIVESGGGLVQAGGSLRISCAASGRTYRFYAMGWYRQAPGKERELVAAISSGGSTYYADSVKGRFTISRDNAKNTVYLQMNSLNPEDTAVYYCAAQRWRGASLYDYWGQGTQVTVSS", "polyreactivity (PSR sort gate)": "high polyreactivity"}
{"sequence": "QVQIVESGGGLVQAGGSLRLCCAASGRTFYGSKMGWYRQAPGKESELVAAISRNGASTFYADSVKRRFTISRDNAKKSVYLQINILKPEYTGVYYFNARSWRHTDTSFEYWGQGTQVTVSS", "polyreactivity (PSR sort gate)": "high polyreactivity"}
{"sequence": "QVQIVESGGGLVQAGGSLRLRCAASGITFSIYAMGWYRQAPGKERELVAAIDSGGGTNYADSVKGRFTISLDNAKNTVYLQMNSLKAEDTAVYYCAADFLKVDWYDYWGQGTQVTVSS", "polyreactivity (PSR sort gate)": "low polyreactivity"}
{"sequence": "QVQIVESGGGLVQAGGSLRLRCAASGRIVKYAMGWYRHAPGKERELVAAINSGGSTKYADSVKGRFTISRDNAKITVYLQMICLKPEDTAVYYCAARILYHMDLGQGTQVTVSS", "polyreactivity (PSR sort gate)": "high polyreactivity"}
{"sequence": "QVQIVESGGGLVQAGGSLRLSCAASGFIFQTNVMGWYRQAPGKERELVAAISSGDSTYYADSVKGRFTISRDNAKNTVYLQMNSLKPEDTAVYYCAADVLGTTTTVGGFNYWGQGTQVTVSS", "polyreactivity (PSR sort gate)": "low polyreactivity"}
{"sequence": "QVQIVESGGGLVQAGGSLRLSCAASGFIFYSYAMGWYRQAPGKEREFVASISGRTGSTYYADSVKVRFTISRDNAKNTVYLQMNSLKPEDTAVYYCNARIVHSFRYDYWGQGTQVTVSS", "polyreactivity (PSR sort gate)": "low polyreactivity"}
{"sequence": "QVQIVESGGGLVQAGGSLRLSCAASGFILNYYGMGWYRQAPGKERELVATISRGASTNYADSVKGRFTISRDNAKNTVYLQMISLKPEETEVYSCAKDYGDWGQGTQVTVSS", "polyreactivity (PSR sort gate)": "low polyreactivity"}
{"sequence": "QVQIVESGGGLVQAGGSLRLSCAASGFTFALYAMGWYRQEPGKEREWVAANTRSGRTKYADSVKGRFTISRDNAKNTVYLQMNSLKPEDTAVYYCAADFRYYVTTRFNYWGQGTQVTVSS", "polyreactivity (PSR sort gate)": "high polyreactivity"}
{"sequence": "QVQIVESGGGLVQAGGSLRLSCAASGFTFVYYVMGWYRPAPGKERELVAAINSGGGSTYYADSVKGRFTISRDKAKNTVYLQMKSLKPEDTAVYYCNARVRVRLGRNWSSYYYWGQGTQVTVSS", "polyreactivity (PSR sort gate)": "high polyreactivity"}
{"sequence": "QVQIVESGGGLVQAGGSLRLSCAASGIIFGRNTMGWYRQAPGKERELVAGISSNGGSTYYADSVKGRFTISRDNAKNTVYLQMNSLKPEDTAVYYCAAYYNIPDRRRVGYDYWGQGTQVTVSS", "polyreactivity (PSR sort gate)": "high polyreactivity"}
{"sequence": "QVQIVESGGGLVQAGGSLRLSCAASGIIFYNYAMGWYREAPGKERELVAAITGTGSRTYYADSVKGRFTISRDNAKNTVYLQMNSLNPEDTAVYYCAVNTRRYWYGYWGQGTQVTVSS", "polyreactivity (PSR sort gate)": "high polyreactivity"}
{"sequence": "QVQIVESGGGLVQAGGSLRLSCAASGNTFNYYTMGWYIQAPGKERELVAAIRSGGRTYYADSVKGRFTISRDNANNSVSLQMNSLKPEDTAVYFCAALAVTYRYDYWGQGTQLTVSS", "polyreactivity (PSR sort gate)": "high polyreactivity"}
{"sequence": "QVQIVESGGGLVQAGGSLRLSCAASGRIFGPYAMVWYRQAPGKERELVAAIRASSSSTYYADSVKGRFTISRDNAKNTVYLQMNSLKPEDTAVYYCAADWYYGYAWKYGYWGQVTQVTVSS", "polyreactivity (PSR sort gate)": "low polyreactivity"}
{"sequence": "QVQIVESGGGLVQAGGSLRLSCAASGRIFNIYAMGWYRQAPGKERELVADIRWNGGSTYYADSVKGRFTISRDNAKNTVYLQMNSLKPEDTAVYYCAAARRRRFYDYYNAWYDVDYWGQGTQVTVSS", "polyreactivity (PSR sort gate)": "low polyreactivity"}
{"sequence": "QVQIVESGGGLVQAGGSLRLSCAASGRIFRNTMGWYIQAPGKERDLVAAITDTTDSTYYADSVKGRFTISRDNAKNTVYLQMNSLKPEDSAVYYCAARYGGYVNRPYYYWGHGTQVTVSS", "polyreactivity (PSR sort gate)": "low polyreactivity"}
